Measurements reported in article PMC6161111, “Design, Synthesis, In Vitro, and Initial In Vivo Evaluation of Heterobivalent Peptidic Ligands Targeting Both NPY(Y1)- and GRP-Receptors—An Improvement for Breast Cancer Imaging?” (Pharmaceuticals, 2018).
*1 amine or outer side, *2 acyl side, *3 side chain or, on linkers, in order; H or OH if unused. Where a SMILES comes first, the peptide text is derived from it. Bridges are numbered along the chain shown (N, C = ends). Roman numbers before positions name the chains, in order. [ ]: non-standard residue; d: D form. X1 = NC(=O)[C@H](CCCCNC(=O)CCC(C(=O)O)N1CCN(CC(=O)O)CCN(CC(=O)O)CC1)NC(=O)CCOCCOCCOCCOCCNC(=O)CN(CCCNC(=O)CCOCCOCCOCCOCCNC(=O)c1ccc(C=NOCC(=O)NCCOCCOCCOCCOCCC(=O)[*:2])cc1)CCCNC(=O)CCOCCOCCOCCOCCNC(=O)c1ccc(C=NOCC(=O)[*:1])cc1; Nle = CCCC[C@H](N)C(=O)O

Key:
T-47D cells = experiment: In vitro cell uptake (internalization) study in T-47D cells; format: cell-based, human; details: after 4 h, % of total added activity
Protocol: Cell culture. All cell lines were grown in suitable culture medium at 37 °C in a humidified CO2 (5%) atmosphere. The human breast cancer cell lines T-47D, MDA-MB-231 and MCF-7 were grown in Dulbecco’s Modified Eagle Medium (DMEM), supplemented with 10% (v/v) fetal calf serum (FCS) and 1% (v/v) L-Glutamine. For a high expression of the NPY(Y1) receptor on T-47D cells, the medium for this cell line was further supplemented with 0.15% (w/v) β-estradiol. The BT-474 and PC-3 cell lines were grown in RPMI-1640 medium, also supplemented with 10% (v/v) fetal calf serum (FCS) and 1% (v/v) L-Glutamine.
Internalization studies. Cells (T-47D, MDA-MB-231, MCF-7, BT-474 and PC-3, 1.5 × 10^6 cells per well) were seeded into 6-well plates and incubated overnight at 37 °C in a humidified CO2 (5%) atmosphere. The next day, the medium was removed and the cells were washed twice with the respective medium without supplements (ice-cold, 1 mL) and incubated with 3.7–4.0 kBq (0.37–4.0 pmol) of the respective ^68Ga-radiolabeled ligand [^68Ga]22−[^68Ga]26, [^68Ga]27 or [^68Ga]28 (in 1.5 mL medium, containing 0.5% (w/v) BSA) for defined time-points of 1, 2, 3 or 4 h at 37 °C in a humidified CO2 (5%) atmosphere. A 1000-fold excess of the respective peptide (3 or 4) was used for blocking to determine the non-specific cell uptake. At each time point, the medium was removed and the cells were washed twice with the respective medium without supplements (ice-cold, 1 mL). Cells were treated twice with 1 mL glycine buffer (ice-cold, 50 mM glycine, 100 mM NaCl, pH 2.8) for 5 min at room temperature, followed by 2 mL NaOH solution (1 M) for 10 min at 37 °C. The supernatants were collected and the radioactivity measured in a gamma counter. The internalized and surface bound activity was expressed as percentage of measured to total added activity. Each data point was generated thrice in triplicates.

[1] = Determination of radiotracer lipophilicity (logD, phosphate buffer/1-octanol); format: physicochemical; details: phosphate buffer (0.05 M, pH 7.4) / 1-octanol, six independent experiments
Protocol: Determination of radiotracer lipophilicity. The heterobivalent ligands (22–26) as well as the monomeric reference compounds (27 and 28) were radiolabeled with ^68Ga as described before and 2 µL of the product solution (~65 pmol of the respective radioligand) were added to a mixture of phosphate buffer (0.05 M, pH 7.4, 800 µL) and 1-octanol (800 µL) and incubated for 5 min at ambient temperature under vigorous shaking. Both phases were separated by centrifugation and 100 µL of each phase were measured for radioactivity in a gamma-counter. […] (cpm = counts per minute), cpmw = activity in the aqueous phase [cpm]. These experiments were performed six times independently.

T-47D tumor-bearing mice = experiment: Ex vivo biodistribution in T-47D tumor-bearing mice; details: mouse, in vivo
Protocol: (§1) In vivo experiments. All animal experiments were performed in compliance with the German animal protection laws and protocols of the local committee (Regierungspräsidium Karlsruhe, approval number: 35-9185.81/G-206/15). 20, six week old female immunodeficient Fox Chase SCID (CB17/Icr-Prkdc^scid/IcrIcoCrl) mice with an average weight of 20 g were subcutaneously implanted with 17β-estradiol pellets (0.36 mg/60 days). 4 days later, the tumors were induced by subcutaneous inoculation of 5 × 10^6 T-47D cells into the left flank of the […]. After induction, the tumors were allowed to grow for 8–10 weeks and reached a diameter of about 0.5 cm. For imaging, the animals were anaesthetized with isoflurane and injected with 5.5–8.0 MBq of the respective radioligand ([^68Ga]24, [^68Ga]24a or [^68Ga]24b) into the lateral tail vein. Dynamic PET images were acquired over 90 min and CT images were obtained within further 30 min. After the end of the diagnostic scan, the animals were sacrificed, the organs were collected and measured in a gamma-counter.

[2] = as above; details: female, Fox Chase SCID (CB17/Icr-Prkdc^scid/IcrIcoCrl), mouse, in vivo, iv, total radioactivity
Protocol: as §1

| Compound | specific cell uptake (T-47D cells) [%] | logD [1] | adrenal glands uptake (T-47D tumor-bearing mice) [ID/g in %] | blood uptake (T-47D tumor-bearing mice) [ID/g in %] | bone uptake (T-47D tumor-bearing mice) [ID/g in %] | brain uptake (T-47D tumor-bearing mice) [ID/g in %] | heart uptake (T-47D tumor-bearing mice) [ID/g in %] | kidneys uptake (T-47D tumor-bearing mice) [ID/g in %] | large intestines uptake (T-47D tumor-bearing mice) [ID/g in %] | liver uptake (T-47D tumor-bearing mice) [ID/g in %] | lung uptake (T-47D tumor-bearing mice) [ID/g in %] | muscle uptake (T-47D tumor-bearing mice) [ID/g in %] | pancreas uptake (T-47D tumor-bearing mice) [ID/g in %] | small intestines uptake (T-47D tumor-bearing mice) [ID/g in %] | spleen uptake (T-47D tumor-bearing mice) [ID/g in %] | stomach uptake (T-47D tumor-bearing mice) [ID/g in %] | tail uptake (T-47D tumor-bearing mice) [ID/g in %] | tumor uptake (T-47D tumor-bearing mice) [ID/g in %] | tissue to tissue ratio at 130 min ([2]; tumor-to-blood ratio (T / B)) | tissue to tissue ratio at 130 min ([2]; tumor-to-muscle ratio (T / M)) |
| --- | --- | --- | --- | --- | --- | --- | --- | --- | --- | --- | --- | --- | --- | --- | --- | --- | --- | --- | --- | --- |
| CCCC[C@H](NC(=O)[C@H](CCCNC(=N)N)NC(=O)[C@H](Cc1c[nH]c2ccccc12)NC(=O)[C@H](CCCCNC(=O)CON=Cc1ccc(C(=O)NCCCN(CCCNC(=O)c2ccc(C=NOCC(=O)NCCOCCOCCOCCOCCC(=O)N[C@@H](CCC(N)=O)C(=O)N[C@@H](Cc3c[nH]c4ccccc34)C(=O)N[C@@H](C)C(=O)N[C@H](C(=O)NCC(=O)N[C@@H](Cc3c[nH]cn3)C(=O)N[C@@H](CC(C)C)C(=O)N[C@@H](CCSC)C(N)=O)C(C)C)cc2)CC(=O)NCCOCCOCCOCCOCCC(=O)N[C@@H](CCCCNC(=O)CCC(C(=O)O)N2CCN(CC(=O)O)CCN(CC(=O)O)CC2)C(N)=O)cc1)NC(=O)[C@@H]1CCCN1C(=O)[C@H](CC(N)=O)NC(=O)[C@@H](N)[C@@H](C)CC)C(=O)N[C@@H](CCCNC(=N)N)C(=O)N[C@@H](Cc1ccc(O)cc1)C(N)=O (stereo partly shown) [[^68Ga]22, metal not drawn] | 47.8 ± 6.5 | -1.57 ± 0.111 |  |  |  |  |  |  |  |  |  |  |  |  |  |  |  |  |  |  |
| CCCC[C@H](NC(=O)[C@H](CCCNC(=N)N)NC(=O)[C@H](Cc1c[nH]c2ccccc12)NC(=O)[C@H](CCCCNC(=O)CON=Cc1ccc(C(=O)NCCOCCOCC(=O)NCCCN(CCCNC(=O)COCCOCCNC(=O)c2ccc(C=NOCC(=O)NCCOCCOCCOCCOCCC(=O)N[C@@H](CCC(N)=O)C(=O)N[C@@H](Cc3c[nH]c4ccccc34)C(=O)N[C@@H](C)C(=O)N[C@H](C(=O)NCC(=O)N[C@@H](Cc3c[nH]cn3)C(=O)N[C@@H](CC(C)C)C(=O)N[C@@H](CCSC)C(N)=O)C(C)C)cc2)CC(=O)NCCOCCOCCOCCOCCC(=O)N[C@@H](CCCCNC(=O)CCC(C(=O)O)N2CCN(CC(=O)O)CCN(CC(=O)O)CC2)C(N)=O)cc1)NC(=O)[C@@H]1CCCN1C(=O)[C@H](CC(N)=O)NC(=O)[C@@H](N)[C@@H](C)CC)C(=O)N[C@@H](CCCNC(=N)N)C(=O)N[C@@H](Cc1ccc(O)cc1)C(N)=O (stereo partly shown) [[^68Ga]23, metal not drawn] | 45.8 ± 2.9 | -1.53 ± 0.109 |  |  |  |  |  |  |  |  |  |  |  |  |  |  |  |  |  |  |
| CCCC[C@H](NC(=O)[C@H](CCCNC(=N)N)NC(=O)[C@H](Cc1c[nH]c2ccccc12)NC(=O)[C@H](CCCCNC(=O)CON=Cc1ccc(C(=O)NCCOCCOCCOCCOCCC(=O)NCCCN(CCCNC(=O)CCOCCOCCOCCOCCNC(=O)c2ccc(C=NOCC(=O)NCCOCCOCCOCCOCCC(=O)NCC(=O)N[C@@H](CC(C)C)C(=O)N[C@@H](Cc3c[nH]cn3)C(=O)N[C@H](C(=O)N[C@@H](CCSC)C(=O)N[C@@H](Cc3c[nH]c4ccccc34)C(=O)N[C@@H](CCC(N)=O)C(=O)N[C@@H](C)C(N)=O)C(C)C)cc2)CC(=O)NCCOCCOCCOCCOCCC(=O)N[C@@H](CCCCNC(=O)CCC(C(=O)O)N2CCN(CC(=O)O)CCN(CC(=O)O)CC2)C(N)=O)cc1)NC(=O)[C@@H]1CCCN1C(=O)[C@H](CC(N)=O)NC(=O)[C@@H](N)[C@@H](C)CC)C(=O)N[C@@H](CCCNC(=N)N)C(=O)N[C@@H](Cc1ccc(O)cc1)C(N)=O (stereo partly shown) [[^68Ga]24a, metal not drawn] (I: H-INPKWR[Nle]RY-NH2 / II: GLHVMWQA-NH2; linker I:4-II:N via X1) |  |  | 0.74 ± 0.40 | 0.39 ± 0.37 | 0.13 ± 0.08 | 0.03 ± 0.02 | 0.18 ± 0.14 | 29.72 ± 10.33 | 0.24 ± 0.19 | 5.54 ± 0.31 | 0.28 ± 0.04 | 0.26 ± 0.40 | 0.15 ± 0.08 | 0.43 ± 0.37 | 0.49 ± 0.14 | 0.39 ± 0.41 | 0.46 ± 0.41 | 0.21 ± 0.15 | 0.5 ± 0.47 | 1.07 ± 1.14 |
